Read-outs that look alike come from different tables or passages of the source. Ends that are not written are not given here. fluorescein = fluorescein, N-terminal fluorescent label
B4: BBS1 (aa1-430) (domain or fragment, human, UniProt Q8NFJ9-1 1-430, looked up)
chain: MAAASSSDSDACGAESNEANSKWLDAHYDPMANIHTFSACLALADLHGDGEYKLVVGDLGPGGQQPRLKVLKGPLVMTESPLPALPAAAATFLMEQHEPRTPALALASGPCVYVYKNLRPYFKFSLPQLPPNPLEQDLWNQAKEDRIDPLTLKEMLESIRETAEEPLSIQSLRFLQLELSEMEAFVNQHKSNSIKRQTVITTMTTLKKNLADEDAVSCLVLGTENKELLVLDPEAFTILAKMSLPSVPVFLEVSGQFDVEFRLAAACRNGNIYILRRDSKHPKYCIELSAQPVGLIRVHKVLVVGSTQDSLHGFTHKGKKLWTVQMPAAILTMNLLEQHSRGLQAVMAGLANGEVRIYRDKALLNVIHTPDAVTSLCFGRYGREDNTLIMTTRGGGLIIKILKRTAVFVEGGSEVGPPPAQAMKLNVPRK
notes: BBS1, human, residues 1-430; also called BBS1 ß-propeller domain; truncated BBS1 subunit; source: Hi5 insect cells (baculovirus), purified

How the values were obtained:
[1] = biological target: T1, 5HT6 CT (human (from the printed UniProt accession)); assay: fluorescence polarisation; fluorescein-labelled peptide or Smo fragment (0.1–1 µM) titrated with core BBSome or BBS1 (aa1-430); quadratic binding fit
[2] = biological target: GPR161 3ICL (human (from the printed UniProt accession)); assay: as above
[3] = biological target: GPR161 CT1 (human (from the printed UniProt accession)); assay: as above
[4] = biological target: GPR161 CT2 (human (from the printed UniProt accession)); assay: as above
[5] = biological target: MCH 3ICL (human (from the printed UniProt accession)); assay: as above
[6] = biological target: NMU 3ICL1 (human (from the printed UniProt accession)); assay: as above
[7] = biological target: NMU 3ICL2 (human (from the printed UniProt accession)); assay: as above
[8] = biological target: SSTR3 3ICL (human (from the printed UniProt accession)); assay: as above
[9] = biological target: SSTR3 CT1 (human (from the printed UniProt accession)); assay: as above
[10] = biological target: SSTR3 CT2 (human (from the printed UniProt accession)); assay: as above
[11] = biological target: SSTR3 CT3 (human (from the printed UniProt accession)); assay: as above
[12] = biological target: SSTR3 CT4 (human (from the printed UniProt accession)); assay: as above
[13] = biological target: SSTR3 CT5 (human (from the printed UniProt accession)); assay: as above
[14] = biological target: SSTR3 CT6 (human (from the printed UniProt accession)); assay: as above
[15] = biological target: SSTR3 CT7 (human (from the printed UniProt accession)); assay: as above
[16] = biological target: SSTR3 CT8 (human (from the printed UniProt accession)); assay: as above
[17] = biological target: SSTR3 CT9 (human (from the printed UniProt accession)); assay: as above
[18] = biological target: Smo CT1 (human (from the printed UniProt accession)); assay: as above
[19] = biological target: Smo CT2 (human (from the printed UniProt accession)); assay: as above
[20] = biological target: Smo CT3 (human (from the printed UniProt accession)); assay: as above
[21] = biological target: Smo CT4 (human (from the printed UniProt accession)); assay: as above
[22] = biological target: Smo CT5 (human (from the printed UniProt accession)); assay: as above
[23] = biological target: Smo CT6 (human (from the printed UniProt accession)); assay: as above
[24] = biological target: Smo CT7 (human (from the printed UniProt accession)); assay: as above
[25] = biological target: Smo CT8 (human (from the printed UniProt accession)); assay: as above
[26] = biological target: fluoresceine-labeled Smo (R546-L665) (human (from the printed UniProt accession)) (UniProt Q99835); assay: as above
[27] = biological target: T1, 5HT6 CT (human); assay: as above; remark: listed apart in the source
[28] = biological target: the molecule itself; assay: SEC; full length BBS9 at high concentrations; at lower concentrations the single peak shifts to lower molecular weight (fast equilibrium between monomer and dimer)
[29] = biological target: the molecule itself; assay: SEC; samples purified by affinity chromatography and gel filtration; 2.5–10 µg of the peak fraction on a Superdex 200 5/20 column; elution volume against standard proteins
[30] = biological target: B4; assay: fluorescence polarisation; fluorescein-labelled peptide or Smo fragment (0.1–1 µM) titrated with core BBSome or BBS1 (aa1-430); quadratic binding fit; details: both partners purified
[31] = biological target: T2, SSTR3 CT2 (human (from the printed UniProt …, fluorescein on the N-terminus)); assay: as above; details: both partners purified
T2 construct: SSTR3, three residues of the 7th transmembrane region and 21 of the C-terminus; limits worked out from the printed RRVR 333-336; source: synthetic peptide, bought: Proteogenix
T2 peptide: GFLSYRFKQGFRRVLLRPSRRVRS

T1 sequence (P50406 325-344): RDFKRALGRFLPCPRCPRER
GPR161 CT1 (human, sequence (Q8N6U8 328-354): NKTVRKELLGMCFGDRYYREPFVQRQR
fluoresceine-labeled Smo (R546-L665) (human, sequence (Q99835 546-665): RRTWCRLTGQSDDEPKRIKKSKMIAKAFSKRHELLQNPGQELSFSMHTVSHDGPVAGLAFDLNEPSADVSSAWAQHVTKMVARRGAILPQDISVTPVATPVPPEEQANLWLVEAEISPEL
NMU 3ICL2 (human, sequence (Q9HB89 271-294): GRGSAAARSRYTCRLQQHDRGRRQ
Smo CT3 (human, sequence (Q99835 541-577): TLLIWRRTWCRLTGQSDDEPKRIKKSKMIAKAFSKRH
MCH 3ICL (human, sequence (peptide, as listed by the source): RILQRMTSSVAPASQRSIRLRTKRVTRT
GPR161 CT2 (human, sequence (Q8N6U8 489-510): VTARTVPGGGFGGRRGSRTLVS
NMU 3ICL1 (human, sequence (peptide, as listed by the source): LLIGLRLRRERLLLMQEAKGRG

Q: Which Kd [1] does the source give for “6mer BBSome core complex (BBS1, 4, 5, 8, 9 and 18) (from UniProt Q8NFJ9-1 1-593; Q96RK4-1 1-519; Q8N3I7-1 1-341; Q8TAM2 1-541; Q3SYG4-1 1-887; A8MTZ0-1 1-92)” here?
A: The Kd was 44.2 µM.

Q: And the Kd [2]?
A: The Kd was 6.3 µM.

Q: What about the Kd [3] of the same molecule?
A: The Kd was 67.4 µM.

Q: What about the Kd [4] of the same molecule?
A: The Kd was greater than 100 µM.

Q: And the Kd [5]?
A: The Kd was 68.8 µM.

Q: And the Kd [6]?
A: Its Kd is 18.1 µM.

Q: What about the Kd [7] of the same molecule?
A: The Kd was greater than 100 µM.

Q: What about the Kd [8] of the same molecule?
A: The Kd was 12.8 µM.

Q: And the Kd [9]?
A: The Kd was 22.1 µM.

Q: And the Kd [10]?
A: Its Kd is 0.11 µM.

Q: And the Kd [11]?
A: Its Kd is 1.1 µM.

Q: And the Kd [12]?
A: Its Kd is 0.4 µM.

Q: And the Kd [13]?
A: Its Kd is 1.5 µM.

Q: And the Kd [14]?
A: Its Kd is 4.5 µM.

Q: And the Kd [15]?
A: Its Kd is 1 µM.

Q: And the Kd [16]?
A: The Kd was 11 µM.

Q: And the Kd [17]?
A: The Kd was 4.7 µM.

Q: And the Kd [18]?
A: The Kd was 1.8 µM.

Q: And the Kd [19]?
A: Its Kd is greater than 100 µM.

Q: What about the Kd [20] of the same molecule?
A: The Kd was 1.4 µM.

Q: What about the Kd [21] of the same molecule?
A: The Kd was 1.1 µM.

Q: What about the Kd [22] of the same molecule?
A: The Kd was 9.7 µM.

Q: What about the Kd [23] of the same molecule?
A: Its Kd is 12.5 µM.

Q: What about the Kd [24] of the same molecule?
A: The Kd was 14.3 µM.

Q: What about the Kd [25] of the same molecule?
A: Its Kd is 6.8 µM.

Q: And the Kd [26]?
A: The Kd was 36.1 µM.

Q: What about the Kd [27] of the same molecule?
A: The Kd was greater than 50 µM.

B1: BBS9 (full length) (natural protein, human, UniProt Q3SYG4-1 1-887, looked up)
chain: MSLFKARDWWSTILGDKEEFDQGCLCLANVDNSGNGQDKIIVGSFMGYLRIFSPHPAKTGDGAQAEDLLLEVDLRDPVLQVEVGKFVSGTEMLHLAVLHSRKLCVYSVSGTLGNVEHGNQCQMKLMYEHNLQRTACNMTYGSFGGVKGRDLICIQSMDGMLMVFEQESYAFGRFLPGFLLPGPLAYSSRTDSFLTVSSCQQVESYKYQVLAFATDADKRQETEQQKLGSGKRLVVDWTLNIGEQALDICIVSFNQSASSVFVLGERNFFCLKDNGQIRFMKKLDWSPSCFLPYCSVSEGTINTLIGNHNNMLHIYQDVTLKWATQLPHIPVAVRVGCLHDLKGVIVTLSDDGHLQCSYLGTDPSLFQAPNVQSRELNYDELDVEMKELQKIIKDVNKSQGVWPMTEREDDLNVSVVVSPNFDSVSQATDVEVGTDLVPSVTVKVTLQNRVILQKAKLSVYVQPPLELTCDQFTFEFMTPDLTRTVSFSVYLKRSYTPSELEGNAVVSYSRPTDRNPDGIPRVIQCKFRLPLKLICLPGQPSKTASHKITIDTNKSPVSLLSLFPGFASQSDDDQVNVMGFHFLGGARITVLASKTSQRYRIQSEQFEDLWLITNELILRLQEYFEKQGVKDFACSFSGSIPLQEYFELIDHHFELRINGEKLEELLSERAVQFRAIQRRLLARFKDKTPAPLQHLDTLLDGTYKQVIALADAVEENQGNLFQSFTRLKSATHLVILLIALWQKLSADQVAILEAAFLPLQEDTQELGWEETVDAAISHLLKTCLSKSSKEQALNLNSQLNIPKDTSQLKKHITLLCDRLSKGGRLCLSTDAAAPQTMVMPGGCTTIPESDLEERSVEQDSTELFTNHRHLTAETPRPEVSPLQGVSE
notes: BBS9, human, as NM_198428.2 (887 residues by the printed range 363-887); source: Hi5 insect cells (baculovirus); alone, purified, or co-expressed with other subunits
Q: B1 was tested. Which “stoichiometry N” value [28] did it give?
A: Its value is 2.

B2: BBS9 C-terminal part (residues 363–887) (domain or fragment, human, UniProt Q3SYG4-1 363-887, looked up)
chain: PSLFQAPNVQSRELNYDELDVEMKELQKIIKDVNKSQGVWPMTEREDDLNVSVVVSPNFDSVSQATDVEVGTDLVPSVTVKVTLQNRVILQKAKLSVYVQPPLELTCDQFTFEFMTPDLTRTVSFSVYLKRSYTPSELEGNAVVSYSRPTDRNPDGIPRVIQCKFRLPLKLICLPGQPSKTASHKITIDTNKSPVSLLSLFPGFASQSDDDQVNVMGFHFLGGARITVLASKTSQRYRIQSEQFEDLWLITNELILRLQEYFEKQGVKDFACSFSGSIPLQEYFELIDHHFELRINGEKLEELLSERAVQFRAIQRRLLARFKDKTPAPLQHLDTLLDGTYKQVIALADAVEENQGNLFQSFTRLKSATHLVILLIALWQKLSADQVAILEAAFLPLQEDTQELGWEETVDAAISHLLKTCLSKSSKEQALNLNSQLNIPKDTSQLKKHITLLCDRLSKGGRLCLSTDAAAPQTMVMPGGCTTIPESDLEERSVEQDSTELFTNHRHLTAETPRPEVSPLQGVSE
notes: BBS9, human, residues 363-887 (GAE, platform and alpha-helical domains); also called C-terminal domain of BBS9; C-terminal appendage part; source: Hi5 insect cells (baculovirus); alone, purified, or co-expressed with BBS1
Q: Which “stoichiometry N” value [29] does the source give for B2 here?
A: Its value is 2.

B3: SSTR3 3ICL (peptide)
peptide: fluorescein-VKVRSAGRRVWAPSCQRRRRSERRVTRM
notes: SSTR3, third intracellular loop; source: synthetic peptide, bought: Proteogenix
Q: Does B3 bind [30]?
A: Result: binds

Q: Which “fold lower affinity than to the core BBSome” value [31] does the source give for B4 here?
A: The value was roughly 100 fold.

Source: PMC5700813, “A recombinant BBSome core complex and how it interacts with ciliary cargo” (eLife, 2017)
